According to article PMC5899921 (Cytoskeleton (Hoboken, N.J.), 2017):

B1: Myo2p, heavy chain of fission yeast myosin-II Myo2, in purified "Phosphorylated Myo2" (natural protein, S. pombe, UniProt Q9USI6 1-1526, looked up)
chain: MTEVISNKITAKDGATSLKDIDDKRWVWISDPETAFTKAWIKEDLPDKKYVVRYNNSRDEKIVGEDEIDPVNPAKFDRVNDMAELTYLNEPAVTYNLEQRYLSDQIYTYSGLFLVAVNPYCGLPIYTKDIIQLYKDKTQERKLPHVFAIADLAYNNLLENKENQSILVTGESGAGKTENTKRIIQYLAAIASSTTVGSSQVEEQIIKTNPVLESFGNARTVRNNNSSRFGKFIKVEFSLSGEISNAAIEWYLLEKSRVVHQNEFERNYHVFYQLLSGADTALKNKLLLTDNCNDYRYLKDSVHIIDGVDDKEEFKTLLAAFKTLGFDDKENFDLFNILSIILHMGNIDVGADRSGIARLLNPDEIDKLCHLLGVSPELFSQNLVRPRIKAGHEWVISARSQTQVISSIEALAKAIYERNFGWLVKRLNTSLNHSNAQSYFIGILDIAGFEIFEKNSFEQLCINYTNEKLQQFFNHHMFVLEQEEYMKEEIVWDFIDFGHDLQPTIDLIEKANPIGILSCLDEECVMPKATDATFTSKLDALWRNKSLKYKPFKFADQGFILTHYAADVPYSTEGWLEKNTDPLNENVAKLLAQSTNKHVATLFSDYQETETKTVRGRTKKGLFRTVAQRHKEQLNQLMNQFNSTQPHFIRCIVPNEEKKMHTFNRPLVLGQLRCNGVLEGIRITRAGFPNRLPFNDFRVRYEIMAHLPTGTYVESRRASVMILEELKIDEASYRIGVSKIFFKAGVLAELEERRVATLQRLMTMLQTRIRGFLQRKIFQKRLKDIQAIKLLQANLQVYNEFRTFPWAKLFFNLRPLLSSTQNDKQLKKRDAEIIELKYELKKQQNSKSEVERDLVETNNSLTAVENLLTTERAIALDKEEILRRTQERLANIEDSFSETKQQNENLQRESASLKQINNELESELLEKTSKVETLLSEQNELKEKLSLEEKDLLDTKGELESLRENNATVLSEKAEFNEQCKSLQETIVTKDAELDKLTKYISDYKTEIQEMRLTNQKMNEKSIQQEGSLSESLKRVKKLERENSTLISDVSILKQQKEELSVLKGVQELTINNLEEKVNYLEADVKQLPKLKKELESLNDKDQLYQLQATKNKELEAKVKECLNNIKSLTKELENKEEKCQNLSDASLKYIELQEIHENLLLKVSDLENYKKKYEGLQLDLEGLKDVDTNFQELSKKHRDLTFNHESLLRQSASYKEKLSLASSENKDLSNKVSSLTKQVNELSPKASKVPELERKITNLMHEYSQLGKTFEDEKRKALIASRDNEELRSLKSELESKRKLEVEYQKVLEEVKTTRSLRSEVTLLRNKVADHESIRSKLSEVEMKLVDTRKELNSALDSCKKREAEIHRLKEHRPSGKENNIPAVKTTEPVLKNIPQRKTIFDLQQRNANQALYENLKRDYDRLNLEKHNLEKQVNELKGAEVSPQPTGQSLQHVNLAHAIELKALKDQINSEKAKMFSVQVQYEKREQELQKRIASLEKVNKDSLIDVRALRDRIASLEDELRAA
modifications: phosphoserine at 1444 (largely phosphorylated, LC/MS/MS)
B2: mEGFP-Myo2 (Myo2 heavy chain with an N-terminal mEGFP tag) (natural protein, S. pombe, UniProt Q9USI6 1-1526, looked up)
chain: B1 chain

Assays:
electron microscopy = target: the molecule itself; assay: electron microscopy
[1] = target: the molecule itself; assay: fluorescence correlation spectroscopy with photon counting histogram analysis

| Protein | stoichiometry N (electron microscopy) | stoichiometry N [1] |
| --- | --- | --- |
| B1 | 2 |  |
| B2 |  | 2 |
